Source: paper PMC8840716, “Functional Antagonism of WRI1 and TCP20 Modulates GH3.3 Expression to Maintain Auxin Homeostasis in Roots”
Positions count from the first letter of the chain named.

B1: proGH3.3 probe 1 (dsDNA)
DNA 1: TCTAACGATAACAAACCGAGCCCACTTTTATGTCGACGTGGAATTTGGCT
DNA 2: AGCCAAATTCCACGTCGACATAAAAGTGGGCTCGGTTTGTTATCGTTAGA
B2: proGH3.3 probe 1M (dsDNA)
DNA 1: B1 DNA 1 with G18A, C21A, C22A, C23A, C25A
DNA 2: B1 DNA 2 with G26T, G28T, G29T, G30T, C33T
B3: proGH3.3 probe 3 (dsDNA)
DNA 1: GACATATCAGTCCCACATGTCTGCCCAAAACTAGCCAAAGATTACGTGACC
DNA 2: GGTCACGTAATCTTTGGCTAGTTTTGGGCAGACATGTGGGACTGATATGTC
B4: proGH3.3 probe 3M (dsDNA)
DNA 1: B3 DNA 1 with G10A, C12A, C13A, C14A, C16A
DNA 2: B3 DNA 2 with G36T, G38T, G39T, G40T, C42T
B5: proGH3.3 probe 4 (dsDNA)
DNA 1: CTATATATTTTTAATATTTAGGTCCCATTAAATCAGTTTGTGATTTCAGA
DNA 2: TCTGAAATCACAAACTGATTTAATGGGACCTAAATATTAAAAATATATAG
B6: proGH3.3 probe 4M (dsDNA)
DNA 1: B5 DNA 1 with G21A, G22A, C24A, C25A, C26A
DNA 2: B5 DNA 2 with G25T, G26T, G27T, C29T, C30T
B7: proGH3.3 probe 2 (dsDNA)
DNA 1: ATGTCTGCCCAAAACTAGCCAAAGATTACGTGACCGCGGTCCCTCTTGTCC
DNA 2: GGACAAGAGGGACCGCGGTCACGTAATCTTTGGCTAGTTTTGGGCAGACAT
B8: proGH3.3 probe 2M (dsDNA)
DNA 1: B7 DNA 1 with G38A, G39A, C41A, C42A, C43A, C45A
DNA 2: B7 DNA 2 with G7T, G9T, G10T, G11T, C13T, C14T

Tests used:
AtWRI1 1-302 [1] = molecular target: T1, AtWRI1 1-302 (UniProt Q6X5Y6 1-302); assay: EMSA; 15 mM HEPES-KOH pH 7.5, 7.5 mM KCl, 0.5 mM EDTA, 5% glycerol, 2 mM DTT, 1 ug/uL BSA, 0.05 ug/uL poly(dI-dC), 2 fmol/uL probe, ~1 pmol His-TCP20 in 20 uL, room temperature 30 min; conditions: protein: recombinant; tags: N-terminal 6xHis (pNIC28-Bsa4); label: 5' biotin
TCP20 [2] = molecular target: T2, TCP20 (UniProt Q9LSD5 1-314); assay: as above; conditions: protein: recombinant; tags: 6xHis (pET41a-6xHis); chain copies: 2; label: 5' biotin
AtWRI1 1-302 [3] = molecular target: T1, AtWRI1 1-302; assay: EMSA; equal affinity to probe 1; 15 mM HEPES-KOH pH 7.5, 7.5 mM KCl, 0.5 mM EDTA, 5% glycerol, 2 mM DTT, 1 ug/uL BSA, 0.05 ug/uL poly(dI-dC), 2 fmol/uL probe, ~1 pmol His-TCP20 in 20 uL, room temperature 30 min; conditions: protein: recombinant; tags: N-terminal 6xHis (pNIC28-Bsa4); label: 5' biotin
TCP20 [4] = molecular target: T2, TCP20; assay: EMSA; plus AtWRI1 1-302, 0.53-2.12 pmol (no reduction); 15 mM HEPES-KOH pH 7.5, 7.5 mM KCl, 0.5 mM EDTA, 5% glycerol, 2 mM DTT, 1 ug/uL BSA, 0.05 ug/uL poly(dI-dC), 2 fmol/uL probe, ~1 pmol His-TCP20 in 20 uL, room temperature 30 min; conditions: protein: recombinant; tags: 6xHis (pET41a-6xHis); chain copies: 2; label: 5' biotin
AtWRI1 1-302 [5] = molecular target: T1, AtWRI1 1-302; assay: EMSA; equal affinity to probe 3; 15 mM HEPES-KOH pH 7.5, 7.5 mM KCl, 0.5 mM EDTA, 5% glycerol, 2 mM DTT, 1 ug/uL BSA, 0.05 ug/uL poly(dI-dC), 2 fmol/uL probe, ~1 pmol His-TCP20 in 20 uL, room temperature 30 min; conditions: protein: recombinant; tags: N-terminal 6xHis (pNIC28-Bsa4); label: 5' biotin
AtWRI1 1-302 [6] = molecular target: T1, AtWRI1 1-302; assay: EMSA; equal affinity to probe 2; 15 mM HEPES-KOH pH 7.5, 7.5 mM KCl, 0.5 mM EDTA, 5% glycerol, 2 mM DTT, 1 ug/uL BSA, 0.05 ug/uL poly(dI-dC), 2 fmol/uL probe, ~1 pmol His-TCP20 in 20 uL, room temperature 30 min; conditions: protein: recombinant; tags: N-terminal 6xHis (pNIC28-Bsa4); label: 5' biotin

T2 sequence (Q9LSD5 whole entry): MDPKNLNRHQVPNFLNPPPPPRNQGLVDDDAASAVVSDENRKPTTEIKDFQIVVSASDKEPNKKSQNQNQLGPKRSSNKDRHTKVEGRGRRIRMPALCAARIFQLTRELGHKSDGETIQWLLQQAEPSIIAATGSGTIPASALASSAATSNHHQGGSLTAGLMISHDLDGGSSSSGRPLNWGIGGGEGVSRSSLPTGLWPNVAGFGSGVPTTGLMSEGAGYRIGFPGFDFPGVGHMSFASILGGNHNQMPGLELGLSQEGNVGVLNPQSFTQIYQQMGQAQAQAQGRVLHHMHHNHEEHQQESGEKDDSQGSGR
T1 sequence (Q6X5Y6 1-302): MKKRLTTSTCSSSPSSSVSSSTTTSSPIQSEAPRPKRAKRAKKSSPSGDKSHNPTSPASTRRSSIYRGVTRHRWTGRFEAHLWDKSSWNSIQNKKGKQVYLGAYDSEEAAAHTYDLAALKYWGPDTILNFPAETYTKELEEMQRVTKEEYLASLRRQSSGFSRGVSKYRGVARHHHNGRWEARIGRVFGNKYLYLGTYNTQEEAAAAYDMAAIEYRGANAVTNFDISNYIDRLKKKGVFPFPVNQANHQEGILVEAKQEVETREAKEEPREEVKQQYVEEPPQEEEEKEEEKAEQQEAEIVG

Binder | binding result (AtWRI1 1-302 [1]) | binding result (TCP20 [2]) | also measured
B1 | binds | binds | 
B2 |  | no binding | binding result (AtWRI1 1-302 [3]): binds
B3 | binds |  | binding result (TCP20 [4]): binds
B4 |  | no binding | binding result (AtWRI1 1-302 [5]): binds
B5 |  |  | binding result (TCP20 [4]): binds
B6 |  | no binding | 
B7 | binds | binds | 
B8 |  | no binding | binding result (AtWRI1 1-302 [6]): binds
